± gives the standard deviation.
Assay: protein stability index of a GFP-peptide fusion (GPS, HEK-293T) (PSI 1-6); higher = more stable
[1] = treatment: DMSO, c terminus: a fixed tail appended
[2] = treatment: MLN4924 1 uM, 8 h, c terminus: a fixed tail appended
[3] = treatment: DMSO, c terminus: native
[4] = treatment: MLN4924 1 uM, 8 h, c terminus: native
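Also: 24-mer peptide tiles fused after GFP, lentivirally expressed, FACS-sorted into six equal bins by GFP/DsRed ratio, decoded by Illumina sequencing, PSI is the read-weighted mean bin number.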

Sequence	protein stability index [1]	protein stability index [2]	protein stability index [3]	protein stability index [4]
YHRETEGEEQAQLLHVSSPNLASD [KCNA1]	5.16 ± 0.3	5.21 ± 0.27		
ASALRTRMTGGRPPLPPPDDPATL [DYRK1B]	4.65 ± 0.13	4.87 ± 0.23		
PAPERTMAGLSKEPNTLRAPRVRT [VENTX]	4.86 ± 0.29	4.85 ± 0.32		
AVQHFYNIKLEGKVPMHKLFLEML [ESRRG]	2.06 ± 0.42	2.23 ± 0.22		
DKVIELHKSHRGMTPAEAEMHFLE [EPB41L3]	4.51 ± 0.22	4.38 ± 0.14		
KDPSAIGKKQVPCFASMLTKKLHF [CASP6]	2.23 ± 0.14	2.36 ± 0.16		
NYEKLSRGLRYYYDKNIIHKTAGK [ETS1]	2.69 ± 0.15	2.89 ± 0.43		
EPHSLLHLSRLCVRHNLGDTRLGQ [SPSB2]	3.44 ± 0.18	3.35 ± 0.19		
AAFQTILTEIYRIVSQKQMSDRRE [RAB11A]	2.77 ± 0.42	2.52 ± 0.36		
ASLHTLLGDPCPMLESPGAPCRSA [HDAC6]	3.62 ± 0.23	3.83 ± 0.27		
AVLRRIQLQPTSIEKEVFPIMAKE [GMPPB]	2.52 ± 0.33	2.57 ± 0.36		
QLDALPFFVITMIKIVLINSFGAI [SLC29A1]	2.96 ± 0.54	3.31 ± 0.17		
LVKKLQDSVLERWVNDPQRMDKRT [GOLPH3L]	2.69 ± 0.14	2.93 ± 0.29		
AAETASLEEQLQGWGEVMLMADKV [ARL6IP1]	4.53 ± 0.082	4.45 ± 0.19		
SVWQHIDCMGIDRQHIPDTYLCER [KMT2E]	2.83 ± 0.2	2.81 ± 0.4		
LGDRLNVEVDAAPAVDLNQVLNET [KRT33B]	4.93 ± 0.14	4.96 ± 0.097		
ENCLDAKSTSIQVIVKEGGLKLIQ [MLH1]	2.7 ± 0.37	2.94 ± 0.22		
SLPRDRVLGFLIENFKGLAIPYLE [VPS39]	3.24 ± 0.26	2.92 ± 0.49		
QWRIRNLPYPKDVYSVSVDQKERC [DPCD]	3.32 ± 0.42	3.17 ± 0.21		
SGTTLISVIVLDINDNAPTFQSSV [PCDHGC5]	2.96 ± 0.28	2.64 ± 0.63		
LSTKKSPCAGSTSLSHSPGCSSTQ [LCOR]	4.35 ± 0.22	4.27 ± 0.12		
EVMERDAKDYADSIHAIFVETSAK [RAB22A]	4.15 ± 0.28	4.13 ± 0.24		

Sequence	protein stability index [1]	protein stability index [2]	protein stability index [3]	protein stability index [4]
LGIPKSTTSDIPHMLNQVESKVKD [FAM98B]	5.04 ± 0.27	5.23 ± 0.11		
VPARDGTSCKLTDLRGVCVSGKCE [ADAMTSL2]	3.95 ± 0.23	3.92 ± 0.29		
RAILKPRKVCVGGKRRKDEISVDS [PPP2R2B]	3.85 ± 0.19	4.1 ± 0.12		
ERNEVRNVFKELQIMQGLEHPFLV [STK32A]	2.71 ± 0.32	2.72 ± 0.41		
MHYCAVPPRGPLGQGAMFRLPTDS [NEUROD6]	2.97 ± 0.29	3.17 ± 0.38		
VELARYLVDVRQEQLQGFNTRVRE [DNAAF3]	2.54 ± 0.36	2.77 ± 0.13		
IVFPEKLNGSVLPGSGAPARLLCR [ADAMTS4]	2.87 ± 0.26	2.59 ± 0.4		
KDTDLARVRRFQVVEVTKGILEHV [M1AP]	2.55 ± 0.47	2.86 ± 0.56		
APWNYHYHCPGSPDHQVPYGHDYP [TRAF3IP2]	2.6 ± 0.46	3.23 ± 0.3		
RYLADLLPSVFGSLRDSGYFYDPI [RSPH3]	2.55 ± 0.49	2.6 ± 0.66		
LLRHGMDRLWRPSKVLSLQDLCCR [RAB40B]	3.03 ± 0.09	2.97 ± 0.25		
LELHDYHDIIKHPMDLSTVKRKMD [BRD3]	4.05 ± 0.19	3.98 ± 0.34		
SPVNMVTVAMVAGQCEFAHILHS [ZNF649]			2.08 ± 0.19	1.87 ± 0.25
CAGPLEDAVTIPCGHTFCRLCLPA [TRIM15]	2.69 ± 0.21	2.67 ± 0.37		
ICGFLKERCFRGSSYPVCVSKVVK [OAS1]	2.62 ± 0.31	2.13 ± 0.3		
SKPKNSVWKRLKSPFRKKKDSVT [RIT1]			3.55 ± 0.49	3 ± 0.43
RDMNGKSLDGKAIKVEQATKPSFE [RBMX]	5.08 ± 0.24	5.24 ± 0.27		
YWDGSGHRRTVKMRKGNTMQQFLQ [FAM50A]	2.74 ± 0.12	2.72 ± 0.24		
TQSWSSQSSFNSLQRVPSYDSFDS [ETS1]	4.06 ± 0.2	3.98 ± 0.22		
LVSLTSRNPDQRKESLCISITVSK [FBXO34]	2.26 ± 0.1	2.47 ± 0.15		
RDLPDTPRRFTFYPCVLATEGFTS [TRIM39]	2.56 ± 0.21	2.5 ± 0.2		
RFNQAILVSRHDPASRRRVVEEVR [LPCAT4]	3.62 ± 0.25	3.59 ± 0.29		
